In a protein production outcome set (Wang et al. 2014):

Test: label from the status in PepcDB records

Row | Sequence | protein production
1 | MASGNAGDTACLPAMVQAASLTAQQLLQQHWGYPAFRPGQAEIVEAIAQGRDCLIIWPTGGGKSLCFQVPALLRSGLTIVVTPLIALIENQVADLQARGIAAACLHSQMAPRDRKAVLQKLPQLKLLYLAPETLLSTPLWSRLTEPTIAIAGLILDEAHCLLQWGESFRPTYLRLGAIRPALVRLGKPSFPIAAFTATAYPQEVARLSQILQLQQPQRHQRDPYRSNLVLAVKTVWTPRQRQNQLLDFLAKHQGQSGLIYLRSRRDCETWADRLRNRGYRCAAYHAGVSDRERRQIEQAWQTGSLPFAVCSSAFGMGIDKRDVRWVAHVHPPLLLSEYLQEVGRGGRDQQRAQGLTLVSEPSGWLDPSDRDRWQGFQQATQQQWEAAQRQAQQLPASGDLRSLASSNELDLALAYLQRLGQLQWLDPFRYRRRAIPTPRPAPRLDLQPLRQFLYSRDCRWRSLLQSFGSNHPTTWRCGHCDRCQTTG | failed
2 | MSLIDFHVHLDLYPDPVAVARACEERQLTVLSVTTTPAAWRGTLALAAGRPHVWTALGFHPEVVSERAADLPWFDRYLPETRFVGEVGLDGSPSLRGTWTQQFAVFQHILRRCEDHGGRILSIHSRRAESEVLNCLEANPRSGTPILHWYSGSVTELRRAISLGCWFSVGPTMVRTQKGAALIRSMPRDRVLTETDGPFLELDGQAALPWDVKSVVEGLSKIWQIPASEVERIVKENVSRLLGTVREGHHHHHH | not failed
3 | MSLAEHKGDVMIVDDDAHVRIAVKTILSDAGFHIISADSGGQCIDLLKKGFSGVVLLDIMMPGMDGWDTIRAILDNSLEQGIAIVMLTAKNAPDAKMIGLQEYVVDYITKPFDNEDLIEKTTFFMGFVRNQTGNEGHHHHHH | not failed
4 | MRKMTGEEFDPLVSFFDGMAQASWLRPVHDRLKKGTGSWANRAVLDVGCGTGRLLARGVHEAAHLAGVDLSKQMVLATEERLHEHKQCGRLTVVQGDAYDLPFADESFDVCLSTCVMFLLPEPERGMKEMIRVLNGAGVIGMLNPTNKMNHAAAKAYCKKSGITGFEEKTLLQWSNVSTRRHRYTAEQLTHFFKQHGAWVVTHELVLDGLAVVTVASWNKLEHHHHHH | not failed
5 | MKAKREQILIRTSWISTIGNAILSTSKIIVGLWAGSLAVLGDGIDSATDVIISIVMIFTARIISQPPSKKYVFGYEKAEGIATKILSLVIFYAGVQMLISSIGSIFSEEAKEIPSAIAIYVTIFSIIGKLLLALYQYKQGKKIDSSMLTANAINMRNDVIISSGVLLGLIFTFIFKLPILDSITGLIISLFIIKSSIGIFIDSNVELMDGVKDVNVYNKIFEAVETVPGASNPHRVRSRMIGNLYMITLDIEVNPQITITQAHQIADAVEKSIKSSIDNVYDILVHVEPAGECQTDEKFGIDKGMVN | failed
6 | MLKKVQEHLPRQLLPAPDAITAFCHLIANWSRSELVLALTVDQQGNRAQIITTTSTKFPNLEIIAPWRDLVQGTVIDVLPFLKLPSIFFCLLSKVERIVYIPCGEPEKWCQGLLLVNPVEEPLQQLAEQKGYIAALYRQLLIHHRQSQNSFIFEAQFQDIFDTVPLGLVLIKGDSSTAMVNSYAAQWLQLPPGSHPVQIVAEHMKQGWERCDNCDELVNLFQGLAANANFSAQGECRRGEKTFLIDTHPVRGDSRLGRVWIFSDISDMRQREQALLALAWLDPLTGAFNRRFLLSRVEAYESQAATGEALLTVMIFDIDHFKRINDTYGHDQGDVVLRTLAARAKQVLESCQDGILVRWGGEEFVLLFFVAYEDQAKAVAEELCSVVRSQPVELTDQYSLSVTISLGVTLFRGGEQVLSDSIPRADQALYEAKHGGRDRWVWA | failed
7 | MISVGKGKIMITPDHNIIKPIAIVLPQFHPIRENNLWWGEGFTEWTNVVKGRPRFRGHYQPHLPKDLGYYDLRLPETRKAQAALATKYGIYGFCYYHYWFNGRRILESPVDAMLESGEPDFPFMLCWANENWTRNWDGSYNKVLLEQKYSKEDFVNHARHLIRYFKDDRYIKIDGRPVFAIYKDDIGEDIEKYLLLFRNELLKNSINVFLCRFERNIGTSRDLNRAFQVFDAGIEFQPLARQFSYLINYNNRLSRRIYKTLKKHFCFCKNIDDVYVYSHLVDNDLKYDFQQGWPIFPGVCPGWDNSARRRDTTAIIFDKSTPEIFKLWVREKIRITDWNLLPERFLFVNAWNEWAEGNHLEPCEKWGTQYLAALQAGINEM | failed
8 | MATKGLKMVTLALLDDKGVIVKGETGLSTNGVFPITDEMLGTKTANITNLSSAPTMIYGNDGQVDADIAKGTPSVAFAFNGLPVDIKNKLLGRVNDTKGGYTQGSIPKVAVLIQTTTIGTAKPQYVAFAAGKMNETAMNLQTNTNAVVRVDDALTFTAFSVSRWGGEAVKFFDGGDSKFTEDVMMKDVFNGYAGVGV | failed
9 | MNKKILATAVLGTGALSTLFAHQAEASTTHTVRSGESLWSISHHYGITVSKLKSLNGLSSNLIFPNQVLKVSGSSNYSSRSNYGNSSSTYTVRAGDSLSSIASRYGTTYRHIMNLNGLNSFLIFPGQQLKVSGSVSSNSHSSYNSNSGGSSSTYTVRYGDSLSSIASRYGTTYQHIMRLNGLNNFFIYPGQKLRVSGSASSNTYSTRSAQSTYYSSPVFNHRNLYDWGQCTWHVFNRRAAIGKGISTYWWNANNWDNAAARDGYRIDGNPTVGSIAQSDAGYYGHVAFVERVNSNGSILVSEMNFSASPGILTYRTIPAYQVRNYKFIH | failed
10 | QMNTVFIKNEGVTEGEIATIGEHTAEISGVSTGTDWTRDYSQSGALRSLLGTVSTEKQGLPAEEVDEYLKKGYARNDRVGTSYLEKQYEDVLQGKKAKSEVVLDNNGKIVSQTPISKGEKGSNLKLTID | failed
11 | MEKKVHYKMYKAGKKWVFVMLSTVALTGIMVMSGNIAKADAVAQSSTEQVAKIDTTSATTTSTQATAQVEKATNNVNESNAAQTSATTTTEQSSVNAGATSSSQNNKQATTTSVAASQNTSVANKDQVSSTQSSTTQNSEEPKVETPVNTADNASQKNVNGNWYLVDNNTGKNLTGFQEIKYQNKVVYYAPSNAQMQYGWQDINNNRYYFDTFDGAMTTGQKNINGNWYMFDAQGVLQTGFQRIESQNKTVYYSEDKDKLGQMQYGQKNIKGNWYNFDTYDGAMKTGFVTIPSQNKTVYYSEDKAKLGQMQYGKTKVNGKTYYFDTYDGAMKKGLTNINGNYYYFDNSGVMATNQKNINGNWYMFNDQGIMQTGFVHIPSQGKTVYYSKDKDKLGQMLYGQKNINGRWYNFDTYDGAMKTGFVYIPSQNKTVYYDENQSTLGQMKYGFQNINGKTYYLDTFDGSMKTGQKNINGNWYMFDDKGVMKVGFVTIPSQNKTVYYSEDKAKLGQMQYGKTGIKGKTYYFDTFDGAMKTGVFYNKETGTLQYYGNNGQMNYGNVVINGKVYAFDAAGNYLGKGNVTIDGHDYYLGNNNQVLVGFQKISNNTYYYNKDNGQKEYGQKNIDGSWYMFDDKTGIMKTGFVTIPSQNKTVYYGNNGQMQYGQRNIDGHWYMFDTYNGAMKTGLVYIPEQNKTVYYGSNGQMQYGVFRVGKITYTADHISGAIIGVYNDAEVIGQNPELPTGCEITAVTMMLRYAGANINKIQLANEMPRSNNGDYGFVGNPFSVTGWWVFPTGVAPVVNKHLGHSQVMTGASLESIKNKLLNGHLVVAWVANMNGFVNHAIALTGYNGNTLYYNNPWTARKESMSVSSFYTHWNADKQRALSY | failed
12 | MAEAKSRVGRPSGDTQNRDKLILAARNLFIERPYAQVSIREIASLAGTDPGLIRYYFGSKEKLFSTMIHETAMPVLAQLHKARRETRQESPAALLQTYYSVMSKHPHFPRLMLRIAGLDQSLPENAEVTKAFYEVVNFENIAIFQRLKDKNLLKDDVDAHCAQLSFFAMMVFPFIVPENLLERVGIELTPDFLQLLAEQNTRLLQRGLMDVKDERDE | not failed
13 | MIAAYENSKWEPVKWENDMHCAVKIQDKNQWRRGQIIRMVTDTLVEVLLYDVGVELVVNVDCLRKLEENLKTMGRLSL | not failed
14 | MNTSSSFKALASPPLISTSRPTTKSFPNPRFTSRFSPKPITCMRDSLNLGSNPKAPSPFSLATVSVDAPLGTKTSDKLRILVSEFRSLTEPIDRVKRLLNYAATLAPLDESARISENRVTGCTTQVWLEIKMDEFGRMRFKADSDSEISKGFCSCLIWILDGAKPEEVMGVRSEDLSEMNVGVHGKEQSRVNTWHNVLMSMQKRTMTLVATDVAHQRGQRPPHQHDLLFKYVNGSYMESSKVHDYSISLLPLYYDFII | failed
15 | KQQKDGSWLMDALIPLNELKYKLGLTTIEGEESEGFQTLNGFLTWWLGRLPHAGELVDYEGWQFEVLNVKHHRIVQVKVSRETESETTTDTNDGDANP | not failed
16 | MKTYSVIAVASLLATNLLTFPSSSLAEIENKTRNSIEAVSHMQSNEKSELQKQLEAAKEREMKLEKREEILKQQEELFIKIDDLKQKKEELLEQAGEHNVQIEEVYQELNELKKQQEELEEKNPLQVKSNDQEKKTNELKSQEELKEKDGVEVKENNGQEEKVHEEFEEQKKKEELKKQQDELRKQQEELKKQQLELEQRIKQELERKQQEEQAKQELELKQKEEQAKRELELKQKEEQVKQELELKQKEEQVKQELELKQKEEQVKQELELKQKEEQEKQELELKQKEEQEKQELELKQKEEQKKQELELKQKEEQEKGERELKQAVSSIQAAPQSFPDVPGWAQESVYYLVHKKVISGMPDGTFSPSKVLSRAEAATIMAKILELEVSEGEKPTFTDSQDHWATPYIAAVEKAGVIKGEGNGKFNPNGQMTRAAMATMLVQAYQLEKKVHEELPTLFPDVKDHWGEKFINILVGMGISSGVDGGRWQPDRSITRAEAAQLVAVTDKSKDNELKMKKVSISKKFFTYNGPSLSSGISKEYGPREVTVYEERDGGWIRIHTDTGFKWVCLVEKKVNMNKNFLTYNEASLSSGISGEYAPQIVTVIEEREGNWIKVYTDLGYKWVCLIDKKVQIDRDFTTYDAPFRSANILDYYGPQAVTVVEERGTWLRIRTYAGYQWLDTKKEAKYLSKVFFAYDSPSFVSRVSGKYAPQTVEVYGEREGGWIQIQTSNGLKWVNEGNINRSQVILNVPSLYQFPELHNGCEVVSLQMLVEHQIGRSLNKVAFAFEMPFDQAKLKNYKTSSQIWGDPDVGFVGDVTGNTPGYSINPEPLKRLLDKYSRGTNLTGNDLSVLEDYVRNGKPVVTWVTVALNNPRAVTTWKTPGGKIIYARMNTHAVVLTGVDDNYVYYNDPFYGTKNVKVSKSRFASIYNQMGKKALSVD | failed
17 | MSARSGFWYACSPPSAPGWCRFFDLLTCCTDEDGLMRDVALCCRSIAIDVRGLLRIDTQEGSAEKLRPSQTDVFNALASFLVAVGSQPYCNLASHPRHLDALAIPDTRYPIPDTQPMTFREPVDLVALNAASRDTLIEHLGIVFTEAGDDWLRATMPVDARTRQPYGLLHGGASVVLAETLGSSAGNLCVDMTTRMCVGLEINANHLRAATQGLVTGTARAVHVGRSTHVWDITIENPVGKRVCVSRLTLAVVARGNG | failed
18 | MSLLLTNHIGYERLGPKKAIIQTEQPHLSSYTAQLICATSEQTVATFAVEEQGKVANWHQGYFYLIDFSSFTDSGDYFLQVEDSRSSSFTVGEHILLEQTLSDVIHYFKSQRCGGVFDQQDRQVPVLNANQTADVHGGWYDASGDVSKYLSHLSYANYLNPQQTPMVVWNILKGLSLLEGSEDIAAFTRTRLIEEALFGADFLVRMQNEKGFFYMTVFDKWSKDTAQREICAYETQLGHKFDDYQAGFRQGGGVAIAALAAASRLGVHGEYDQQKYRNAAENGYWHLKEHNTQYLNDGEENIIDEYCALLASVELFKATKETRYLEESRLWAQRLVARQMSDEQIQHFWSANQDGSRPYFHAAEAGLPVIALCEYLAIEDDSVQTESVKRIVNRACEFEIKISNKVTNPFGYPRQYVKGVNESKRDAFFVAHNNESGYWWQGENARLGSLATMAYLAQPHIASQEIQQQLSVFAQDALNWIVGLNPYDMCMLDGHGRNNPDYLPQYGFFNAKGGVCNGITGGFEDEEDIAFNPPAQKDDMLQNWRWGEQWIPHGAWYLLAIMSQAQHISQLATSKNIKEGHHHHHH | not failed
19 | MTSTVEFINRWQRIALLSQSLLELAQRGEWDLLLQQEVSYLQRIETVMEKQTPPGITRSIQDMVAGYIKQTLDNEQLLKGLLQQRLDELSSLIGQSTRQKSLNNAYGRLSGMLLVPDASGAS | failed
